Assay [1] has as its system primary rat osteoblasts. The assay is described as follows: Proliferation of primary rat osteoblasts (cell counts and [3H]-thymidine incorporation). Format: cell-based. The settings on record: for Mitogenic / proliferative effect on primary osteoblasts (in words): figure legends, significantly different from control by ANOVA, post hoc Dunnett's test; for Dose (ug/mL): minimum dose range that stimulates osteoblast proliferation: primary rat osteoblasts, Table 1. The procedure: Osteoblasts were isolated by collagenase digestion from 20-day fetal rat ? viously described by Lowe, et al. (1991). Calvariae were dissected aseptically, and the frontal and parietal bones were stripped of their periosteum. Only the central portions of the bones, free from suture tissue, were collected. The calvariae were treated twice with phosphate buffered saline (PBS) containing 3 mM EDTA (pH 7.4) for 15 minutes at 37° C. in a shaking water bath. After washing once in PBS, the calvariae were treated twice with 3 ml of 1 mg/ml collagenase for 7 minutes at 37° C. After discarding the supernatants from digestions I and II, the calvariae were treated further two times with 3 ml of 2 mg/ml collagenase (30 mins, 37° C.). The supernatants of digestions III and IV were pooled, centrifuged, and the cells washed in Dulbecco's modified Eagle's medium (DME) with 10% fetal calf serum (FCS), suspended in DME/10% FCS, and placed in […] flasks. The cells were incubated under 5% CO2 and 95% air at 37° C. Confluence was reached by 5-6 days, at which time the cells were subcultured. After trypsinization using trypsin-EDTA (0.05%/0.53 mM), the cells were rinsed in minimum essential medium (MEM) with 5% FCS and resuspended in a fresh medium, then seeded at 5×10^4 cells/ml in 24-well plates (0.5 ml cell suspension per well, i.e., 1.4×10^4 cells/cm^2).
Proliferation studies (cell counts and thymidine incorporation) were performed both in actively growing and non-actively growing cell populations. To produce actively growing cells, sub-confluent populations (24 h after subculturing) were placed in fresh MEM containing 1% FCS and a lactoferrin fragment sample (see Table 1 below). To produce non-actively growing cells, sub-confluent populations were placed in serum-free medium with 0.1% bovine serum albumin plus a lactoferrin fragment sample. Cell numbers were analyzed at 6, 24, and 48 hours after the addition of lactoferrin fragment samples. The cell numbers were determined after detaching cells from the wells by exposure to trypsin/EDTA (0.05%/0.53 mM) for approximately 5 minutes at 37° C. Counting was performed in a haemocytometer chamber. [3H]-thymidine incorporation into actively growing and non-actively growing cells was assessed by pulsing the cells with [3H]-thymidine (1 μCi/well) two hours before the end of the incubation. The experiment was terminated at 6, 24, or 48 hours by washing the cells in MEM containing cold thymidine followed by the addition of 10% trichloroacetic acid. The precipitate was washed twice with ethanol:ether (3:1), and the wells desiccated at room temperature. The ? redissolved in 2 M KOH at 55° C. for 30 min, neutralized with 1 M HCl, and an aliquot counted for radioactivity. For both cell counts and thymidine incorporation, each experiment at each time point was performed at least 4 different times using experimental groups consisting of at least 6 wells.
The osteogenic response seen above was compared with that of insulin-like growth factor 1 (IGF-1), a well-recognized osteoblast mitogen. The magnitudes of response of the lactoferrin fragments were similar to IGF-1 in the same osteoblast cell culture system.
(In general: Uptake of a labelled nucleoside into DNA is a usual measure of proliferation.)

Assay [2] concerns osteoclast development in a bone marrow culture. Briefly: Osteoclast development in mouse bone marrow culture (count of multinucleated osteoclast-like cells). It is filed as cell-based. As to conditions: for Inhibition of osteoclast development in a bone marrow culture (in words): mouse bone marrow culture, 1 week, ANOVA P<0.0001; for Concentration with significant inhibition of osteoclast development: FIG. 7. The procedure:
Bone marrow cultures were used to determine the effect of lactoferrin fragments on osteoclast development. The method used has been previously described (see Cornish, et al., (2001)). Bone marrow was obtained from the long bones of four to six week old Swiss male mice by flushing the marrow cavity with media. The cell suspension was incubated for two hours and the non-adherent cells were plated into 48-well plates and cultured in 1.25 vitamin D3 enriched media for 1 week with lactoferrin fragments at a range of concentrations. Cells were fixed and stained and multinucleated osteoclast-like cells were counted.
A recombinant N-lobe fragment of full length recombinant human lactoferrin (SEQ ID NO. 5) and a lactoferrin C-lobe fragment (SEQ ID NO. 8) were tested. Osteoprotegerin was used as a positive inhibitor control. Full length recombinant human lactoferrin was also tested. The results are shown in FIGS. 6 and 7, as described above.

Data on six molecules can be found in patent US20090270309A1, “USE OF LACTOFERRIN FRAGMENTS AND HYDROLYSATES” (priority 2005, published 2009).

B1: SEQ ID NO. 6: Bovine lactoferrin N-lobe, residues 1-280 of SEQ ID NO. 2, tryptic cleavage (protein, listed as Bos taurus)
chain: APRKNVRWCTISQPEWFKCRRWQWRMKKLGAPSITCVRRAFALECIRAIAEKKADAVTLDGGMVFEAGRDPYKLRPVAAEIYGTKESPQTHYYAVAVVKKGSNFQLDQLQGRKSCHTGLGRSAGWIIPMGILRPYLSWTESLEPLQGAVAKFFSASCVPCIDRQAYPNLCQLCKGEGENQCACSSREPYFGYSGAFKCLQDGAGDVAFVKETTVFENLPEKADRDQYELLCLNNSRAPVDAFKECHLAQVPSHAVVARSVDGKEDLIWKLLSKAQEKFGK
Take B1: in assay [1], the “Mitogenic / proliferative effect on primary osteoblasts (in words)” value (shortened to “Mitogenic / proliferative effect”) is on record as “mitogenic to primary osteoblasts” and the “Dose (ug/mL): minimum dose range that stimulates osteoblast proliferation” value (shortened to “Dose (ug/mL)”) was 1 to 100 µg/mL.

B2: SEQ ID NO. 5: Recombinant human lactoferrin N-lobe, residues 1-333 of SEQ ID NO. 4, expressed from baby hamster kidney cells (protein)
chain: GRRRRSVQWCAVSQPEATKCFQWQRNMRKVRGPPVSCIKRDSPIQCIQAIAENRADAVTLDGGFIYEAGLAPYKLRPVAAEVYGTERQPRTHYYAVAVVKKGGSFQLNELQGLKSCHTGLRRTAGWNVPIGTLRPFLNWTGPPEPIEAAVARFFSASCVPGADKGQFPNLCRLCAGTGENKCAFSSQEPYFSYSGAFKCLRDGAGDVAFIRESTVFEDLSDEAERDEYELLCPDNTRKPVDKFKDCHLARVPSHAVVARSVNGKEDAIWNLLRQAQEKFGKDKSPKFQLFGSPSGQKDLLFKDSAIGFSRVPPRIDSGLYLGSGYFTAIQNLR
modifications: Recombinant human lactoferrin N-lobe
notes: 4, expressed from baby hamster kidney cells
In the case of B2, in assay [2], the “Inhibition of osteoclast development in a bone marrow culture (in words)” value (from here on “Inhibition … (in words)”) was “inhibition of osteoclast development”. In addition, in assay [1], the “Mitogenic / proliferative effect” value is “osteoblast proliferative effects” and the “Dose (ug/mL)” value lay in the range of 0.1 to 10 µg/mL.

B3: osteoprotegerin (protein, UniProt O00300 22-401, looked up)
Tumor necrosis factor …: ETFPPKYLHYDEETSHQLLCDKCPPGTYLKQHCTAKWKTVCAPCPDHYYTDSWHTSDECLYCSPVCKELQYVKQECNRTHNRVCECKEGRYLEIEFCLKHRSCPPGFGVVQAGTPERNTVCKRCPDGFFSNETSSKAPCRKHTNCSVFGLLLTQKGNATHDNICSGNSESTQKCGIDVTLCEEAFFRFAVPTKFTPNWLSVLVDNLPGTKVNAESVERIKRQHSSQEQTFQLLKLWKHQNKDQDIVKKIIQDIDLCENSVQRHIGHANLTFEQLRSLMESLPGKKVGAEDIEKTIKACKPSDQILKLLSLWRIKNGDQDTLKGLMHALKHSKTYHFPKTVTQSLKKTIRFLHSFTMYKLYQKLFLEMIGNQVQSVKISCL
Regarding B3, the “Concentration with significant inhibition of osteoclast development” value in assay [2] (positive inhibitor control, P<0.01 (post hoc Dunnett's test)) worked out at 10 ng/mL.

B4: SEQ ID NO. 8: Bovine lactoferrin C-lobe, residues 285-689 of SEQ ID NO. 2, controlled tryptic hydrolysis (protein, listed as Bos taurus)
chain: SFQLFGSPPGQRDLLFKDSALGFLRIPSKVDSALYLGSRYLTTLKNLRETAEEVKARYTRVVWCAVGPEEQKKCQQWSQQSGQNVTCATASTTDDCIVLVLKGEADALNLDGGYIYTAGKCGLVPVLAENRKSSKHSSLDCVLRPTEGYLAVAVVKKANEGLTWNSLKDKKSCHTAVDRTAGWNIPMGLIVNQTGSCAFDEFFSQSCAPGADPKSRLCALCAGDDQGLDKCVPNSKEKYYGYTGAFRCLAEDVGDVAFVKNDTVWENTNGESTADWAKNLNREDFRLLCLDGTRKPVTEAQSCHLAVAPNHAVVSRSDRAAHVKQVLLHQQALFGKNGKNCPDKFCLFKSETKNLLFNDNTECLAKLGGRPTYEEYLGTEYVTAIANLKKCSTSPLLEACAFLTR
For B4, the “Concentration with significant inhibition of osteoclast development” value in assay [2] (P<0.05 (post hoc Dunnett's test)) was determined as 50000 ng/mL. Moreover, the “Inhibition … (in words)” value in assay [2] is given as “inhibition of osteoclast development”. Moreover, in assay [1], the “Mitogenic / proliferative effect” value was “mitogenic to primary osteoblasts” and the “Dose (ug/mL)” value lay within 1 to 100 µg/mL.

B5: full length recombinant human lactoferrin: Full-length recombinant human lactoferrin, comparator (protein, UniProt P02788 1-710, looked up)
chain: MKLVFLVLLFLGALGLCLAGRRRSVQWCAVSQPEATKCFQWQRNMRKVRGPPVSCIKRDSPIQCIQAIAENRADAVTLDGGFIYEAGLAPYKLRPVAAEVYGTERQPRTHYYAVAVVKKGGSFQLNELQGLKSCHTGLRRTAGWNVPIGTLRPFLNWTGPPEPIEAAVARFFSASCVPGADKGQFPNLCRLCAGTGENKCAFSSQEPYFSYSGAFKCLRDGAGDVAFIRESTVFEDLSDEAERDEYELLCPDNTRKPVDKFKDCHLARVPSHAVVARSVNGKEDAIWNLLRQAQEKFGKDKSPKFQLFGSPSGQKDLLFKDSAIGFSRVPPRIDSGLYLGSGYFTAIQNLRKSEEEVAARRARVVWCAVGEQELRKCNQWSGLSEGSVTCSSASTTEDCIALVLKGEADAMSLDGGYVYTAGKCGLVPVLAENYKSQQSSDPDPNCVDRPVEGYLAVAVVRRSDTSLTWNSVKGKKSCHTAVDRTAGWNIPMGLLFNQTGSCKFDEYFSQSCAPGSDPRSNLCALCIGDEQGENKCVPNSNERYYGYTGAFRCLAENAGDVAFVKDVTVLQNTDGNNNEAWAKDLKLADFALLCLDGKRKPVTEARSCHLAMAPNHAVVSRMDKVERLKQVLLHQQAKFGRNGSDCPDKFCLFQSETKNLLFNDNTECLARLHGKTTYEKYLGPQYVAGITNLKKCSTSPLLEACEFLRK
modifications: full-length recombinant
notes: Full-length recombinant human lactoferrin, comparator
Regarding B5, the “Inhibition … (in words)” value in assay [2] is reported as “inhibition of osteoclast development”.

B6: SEQ ID NO. 7: Bovine lactoferrin C-lobe, residues 345-689 of SEQ ID NO. 2, tryptic cleavage (protein, listed as Bos taurus)
chain: VVWCAVGPEEQKKCQQWSQQSGQNVTCATASTTDDCIVLVLKGEADALNLDGGYIYTAGKCGLVPVLAENRKSSKHSSLDCVLRPTEGYLAVAVVKKANEGLTWNSLKDKKSCHTAVDRTAGWNIPMGLIVNQTGSCAFDEFFSQSCAPGADPKSRLCALCAGDDQGLDKCVPNSKEKYYGYTGAFRCLAEDVGDVAFVKNDTVWENTNGESTADWAKNLNREDFRLLCLDGTRKPVTEAQSCHLAVAPNHAVVSRSDRAAHVKQVLLHQQALFGKNGKNCPDKFCLFKSETKNLLFNDNTECLAKLGGRPTYEEYLGTEYVTAIANLKKCSTSPLLEACAFLTR
Turning to B6, in assay [1], the “Mitogenic / proliferative effect” value is listed as “mitogenic to primary osteoblasts” and the “Dose (ug/mL)” value was in the range of 1 to 100 µg/mL.
